Test results taken from patent publication US20060024786.

System: full length human N-WASP (Myc-N-WASP-TAP)

Substance: N_GST_tev_Rac1 GTP (bacterial GST tagged Rac1 protein)
- activation of FL N-WASP (barbed ends, actin polymerization assay): Rac1 can activate FL N-WASP
- activation of FL N-WASP against Cdc42: Rac1 was a more potent N-WASP activator than Cdc42 in the absence of PIP2 vesicles
- dose dependence of barbed end concentration: there is a bell shaped dose dependence for Nck1, Nck2 and Rac1
